The target of experiment [1] is human Tie2-Fc (human, UniProt Q02763 23-748). Briefly: ELISA.
Experiment [2] has as its target T1, biotinylated huAng2 (human, UniProt O15123, biotin). The experiment in a line: ELISA.
For experiment [3], the target named is human Ang2 protein (Homo sapiens (Human)., UniProt O15123). The experiment in a line: KinExA. (In KinExA the mixture passes briefly over coated beads that capture the unbound partner.)
The target of experiment [4] is T1, biotinylated huAng2. The experiment in a line: ELISA. The source holds these as a separate data set. A general note: An ELISA detects its analyte on a solid surface through an enzyme-linked reagent.

Sequence of human Tie2-Fc (Q02763 23-748): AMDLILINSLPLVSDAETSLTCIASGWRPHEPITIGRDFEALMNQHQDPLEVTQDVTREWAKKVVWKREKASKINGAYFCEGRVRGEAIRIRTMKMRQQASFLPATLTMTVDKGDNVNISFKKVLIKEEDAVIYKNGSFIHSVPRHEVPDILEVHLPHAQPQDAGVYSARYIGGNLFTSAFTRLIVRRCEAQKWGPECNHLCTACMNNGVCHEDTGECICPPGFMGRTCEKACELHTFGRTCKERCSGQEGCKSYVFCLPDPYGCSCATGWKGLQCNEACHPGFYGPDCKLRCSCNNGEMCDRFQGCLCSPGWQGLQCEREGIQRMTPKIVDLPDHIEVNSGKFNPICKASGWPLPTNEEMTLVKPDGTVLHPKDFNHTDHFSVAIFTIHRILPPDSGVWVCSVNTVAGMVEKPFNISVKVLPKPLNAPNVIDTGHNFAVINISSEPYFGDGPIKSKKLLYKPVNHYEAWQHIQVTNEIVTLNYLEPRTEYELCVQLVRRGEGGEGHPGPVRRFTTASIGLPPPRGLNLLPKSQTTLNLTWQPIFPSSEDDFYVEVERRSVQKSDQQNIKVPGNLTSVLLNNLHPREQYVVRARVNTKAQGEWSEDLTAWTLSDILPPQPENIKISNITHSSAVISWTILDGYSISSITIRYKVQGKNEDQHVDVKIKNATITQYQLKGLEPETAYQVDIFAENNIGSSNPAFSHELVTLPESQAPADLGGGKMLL

B1: biotinylated huAng2 (ligand, human, UniProt O15123 19-496, looked up)
chain: YNNFRKSMDSIGKKQYQVQHGSCSYTFLLPEMDNCRSSSSPYVSNAVQRDAPLEYDDSVQRLQVLENIMENNTQWLMKLENYIQDNMKKEMVEIQQNAVQNQTAVMIEIGTNLLNQTAEQTRKLTDVEAQVLNQTTRLELQLLEHSLSTNKLEKQILDQTSEINKLQDKNSFLEKKVLAMEDKHIIQLQSIKEEKDQLQVLVSKQNSIIEELEKKIVTATVNNSVLQKQQHDLMETVNNLLTMMSTSNSAKDPTVAKEEQISFRDCAEVFKSGHTTNGIYTLTFPNSTEEIKAYCDMEAGGGGWTIIQRREDGSVDFQRTWKEYKVGFGNPSGEYWLGNEFVSQLTNQQRYVLKIHLKDWEGNEAYSLYEHFYLSSEELNYRIHLKGLTGTAGKISSISQPGNDFSTKDGDNDKCICKCSQMLTGGWWFDACGPSNLNGMYYPQRQNTNKFNGIKWYYWKGSGYSLKATTMMIRPADF
modifications: biotin
Turning to B1, the binding result in experiment [1] was “binds”.

B2: Ang2 mAb (antibody, V domains shown)
VH: QVQLVESGGGVVQPGRSLRLSCAASGFTFTNYGMHWGRQAPGKGLEWVAVISHDGNNKYYVDSVKGRFTISRDNSKNTLYLQMNSLRAEDTAVYYCAREGIDFWSGLNWFDPWGQGTLVTVSS
VL: EIVLTQSPGTLSLSPGERATLSCRASQSITGSYLAWYQQKPGQAPRLLICGASSWATGIPDRFSGSGSGTDFTLTISRLEPEDFAVYYCQQYSSSPITFGQGTRLEIK
Take B2: the IC50 in experiment [2] turned out to be 0.2 nM. For the same molecule, in experiment [3], the Kd came out at 0.0245 nM.

B3: Ang2 mAb variant Cys49Ala (antibody, V domains shown)
VH: QVQLVESGGGVVQPGRSLRLSCAASGFTFTNYGMHWGRQAPGKGLEWVAVISHDGNNKYYVDSVKGRFTISRDNSKNTLYLQMNSLRAEDTAVYYCAREGIDFWSGLNWFDPWGQGTLVTVSS
VL: EIVLTQSPGTLSLSPGERATLSCRASQSITGSYLAWYQQKPGQAPRLLIAGASSWATGIPDRFSGSGSGTDFTLTISRLEPEDFAVYYCQQYSSSPITFGQGTRLEIK
B3: the “fold change of potency against Ang2 mAb” value in experiment [4] was not above 2.5 fold.

B4: Ang2 mAb variant Cys49Gly (antibody, V domains shown)
VH: QVQLVESGGGVVQPGRSLRLSCAASGFTFTNYGMHWGRQAPGKGLEWVAVISHDGNNKYYVDSVKGRFTISRDNSKNTLYLQMNSLRAEDTAVYYCAREGIDFWSGLNWFDPWGQGTLVTVSS
VL: EIVLTQSPGTLSLSPGERATLSCRASQSITGSYLAWYQQKPGQAPRLLIGGASSWATGIPDRFSGSGSGTDFTLTISRLEPEDFAVYYCQQYSSSPITFGQGTRLEIK
Consider B4, for which the “fold change of potency against Ang2 mAb” value in experiment [4] is not above 2.5 fold.

B5: Cys49Asp (antibody, V domains shown)
VH: QVQLVESGGGVVQPGRSLRLSCAASGFTFTNYGMHWGRQAPGKGLEWVAVISHDGNNKYYVDSVKGRFTISRDNSKNTLYLQMNSLRAEDTAVYYCAREGIDFWSGLNWFDPWGQGTLVTVSS
VL: EIVLTQSPGTLSLSPGERATLSCRASQSITGSYLAWYQQKPGQAPRLLIDGASSWATGIPDRFSGSGSGTDFTLTISRLEPEDFAVYYCQQYSSSPITFGQGTRLEIK
Regarding B5, in experiment [4], the binding result was “binds”.

B6: Cys49Asn (antibody, V domains shown)
VH: QVQLVESGGGVVQPGRSLRLSCAASGFTFTNYGMHWGRQAPGKGLEWVAVISHDGNNKYYVDSVKGRFTISRDNSKNTLYLQMNSLRAEDTAVYYCAREGIDFWSGLNWFDPWGQGTLVTVSS
VL: EIVLTQSPGTLSLSPGERATLSCRASQSITGSYLAWYQQKPGQAPRLLINGASSWATGIPDRFSGSGSGTDFTLTISRLEPEDFAVYYCQQYSSSPITFGQGTRLEIK
As to B6, in experiment [4], the binding result is listed as “binds”.

B7: Ang2 mAb variant Cys49Glu (antibody, V domains shown)
VH: QVQLVESGGGVVQPGRSLRLSCAASGFTFTNYGMHWGRQAPGKGLEWVAVISHDGNNKYYVDSVKGRFTISRDNSKNTLYLQMNSLRAEDTAVYYCAREGIDFWSGLNWFDPWGQGTLVTVSS
VL: EIVLTQSPGTLSLSPGERATLSCRASQSITGSYLAWYQQKPGQAPRLLIEGASSWATGIPDRFSGSGSGTDFTLTISRLEPEDFAVYYCQQYSSSPITFGQGTRLEIK
As to B7, in experiment [4], the binding result was “binds”.

B8: Cys49Thr mAb (antibody, V domains shown)
VH: QVQLVESGGGVVQPGRSLRLSCAASGFTFTNYGMHWGRQAPGKGLEWVAVISHDGNNKYYVDSVKGRFTISRDNSKNTLYLQMNSLRAEDTAVYYCAREGIDFWSGLNWFDPWGQGTLVTVSS
VL: EIVLTQSPGTLSLSPGERATLSCRASQSITGSYLAWYQQKPGQAPRLLITGASSWATGIPDRFSGSGSGTDFTLTISRLEPEDFAVYYCQQYSSSPITFGQGTRLEIK
In experiment [2], B8 returned an IC50 of 0.28 nM. In experiment [3], this molecule came in with a Kd of 0.037 nM.

B9: Ang2 mAb variant Cys49Phe (antibody, V domains shown)
VH: QVQLVESGGGVVQPGRSLRLSCAASGFTFTNYGMHWGRQAPGKGLEWVAVISHDGNNKYYVDSVKGRFTISRDNSKNTLYLQMNSLRAEDTAVYYCAREGIDFWSGLNWFDPWGQGTLVTVSS
VL: EIVLTQSPGTLSLSPGERATLSCRASQSITGSYLAWYQQKPGQAPRLLIFGASSWATGIPDRFSGSGSGTDFTLTISRLEPEDFAVYYCQQYSSSPITFGQGTRLEIK
Turning to B9, in experiment [4], the binding result is “binds”.

As a reminder, the IC50 is the concentration that gives 50% inhibition. Read a high IC50 as weaker potency. In general, Kd refers to the equilibrium constant for the complex coming apart.

(Values after publication PMC3893235 (mAbs, 2013).)
